B1: human B7-1Fc fusion protein (Fc fusion, UniProt P33681 35-242, looked up, not shown: a dimerising Fc or GST)
chain: VIHVTKEVKEVATLSCGHNVSVEELAQTRIYWQKEKKMVLTMMSGDMNIWPEYKNRTIFDITNNLSIVILALRPSDEGTYECVVLKYEKDAFKREHLAEVTLSVKADFPTPSISDFEIPTSNIRRIICSTSGGFPEPHLSWLENGEELNAINTTVSQDPETELYAVSSKLDFNMTTNHSFMCLIKYGHLRVNQTFNWNTTKQEHFPDN
notes: Used biotinylated in ELISA; also called B7-1 Ig; B7-1 Ig fusion protein

Assays:
[1] = target: T1, human IgG1-Fc control (human, UniProt P01857-1 99-330 = IgG part, limits assumed); assay: ELISA, summary grade
T1 construct: domain: Fc; Negative control coated on plates; also called Control IgG1-Fc; hIg-Fc

[2] = target: T2, CTLA-4Fc mutant protein M6 (human (murine residues substituted)); assay: ELISA; binder 10 ng/ml on coated target
T2 construct: also called Mutant 6

[3] = target: T2, CTLA-4Fc mutant protein M6; assay: ELISA; binder 1000 ng/ml on coated target
[4] = target: T3, CTLA-4Fc mutant protein M8 (human (murine residues substituted)); assay: ELISA; binder 1000 ng/ml on coated target
T3 construct: also called Mutant 8

[5] = target: B1; assay: ELISA, summary grade

| binding result [1] | OD450 [2] | OD450 [3] | OD450 [4] | binding result [5] | Binder |
| --- | --- | --- | --- | --- | --- |
| no binding | 0.279 OD450 | 3.41 OD450 | 3.63 OD450 | – | B1 |
| no binding | – | – | – | – | human B7-2Fc fusion protein (Fc fusion, UniProt P42081 24-245, looked up, not shown: a dimerising Fc or GST, Used biotinylated in ELISA; also called hB7-2Fc; CD86) APLKIQAYFNETADLPCQFANSQNQSLSELVVFWQDQENLVLNEVYLGKEKFDSVHSKYMGRTSFDSDSWTLRLHNLQIKDKGLYQCIIHHKKPTGMIRIHQMNSELSVLANFSQPEIVPISNITENVYINLTCSSIHGYPEPKKMSVLLRTKNSTIEYDGVMQKSQDNVTELYDVSISLSVSFPDVTSNMTIFCILETDKTRLLSSPFSIELEDPQPPPDH |
| – | – | – | – | binds | CTLA-4Fc mutant protein M16 (Fc fusion) IQVTQPSVVLASSRGIASFVCEYASPGKATEVRVTVLRQADSQVTEVCAATFTEKNTVGFLDDSICTGTFNESRVNLTIQGLRAMDTGLYICKVELMYPPPYFVGMGNGTQIYVIDPEPCPDSDQEPKSSDKTHTSPPSPAPELLGGSSVFLFPPKPKDTLYITREPEVTCVVVDVSHEDPEVKFNWYVDGVEVHNAKTKPREEQYNSTYRVVSVLTVLHQDWLNGKEYKCKVSNKALPAPIEKTISKAKGQPREPQVYTLPPSRDELTKNQVSLTCLVKGFYPSDIAVEWESNGQPENNYKTTPPVLDSDGSFFLYSKLTVDKSRWQQGNVFSCSVMHEALHNHYTQKSLSLSPGK |
